Measured values published in publication doi:10.1101/2024.09.02.610768 (bioRxiv, 2024).

How the values were obtained:
SEC-MALS = molecular target: the molecule itself; assay: SEC-MALS
FrzCD [1] = molecular target: T1, FrzCD (Myxococcus xanthus, UniProt P43500 1-417); assay: EMSA
T1 sequence: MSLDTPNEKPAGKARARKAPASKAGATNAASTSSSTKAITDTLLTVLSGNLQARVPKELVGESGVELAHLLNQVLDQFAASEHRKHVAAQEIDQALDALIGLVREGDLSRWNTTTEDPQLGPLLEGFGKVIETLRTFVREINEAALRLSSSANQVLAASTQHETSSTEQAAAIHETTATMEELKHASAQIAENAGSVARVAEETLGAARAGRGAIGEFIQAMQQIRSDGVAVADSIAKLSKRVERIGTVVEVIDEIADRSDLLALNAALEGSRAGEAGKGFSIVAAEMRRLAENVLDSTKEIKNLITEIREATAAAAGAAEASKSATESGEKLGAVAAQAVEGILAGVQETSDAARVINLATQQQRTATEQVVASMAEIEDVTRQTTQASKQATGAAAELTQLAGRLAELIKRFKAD

FrzCDΔMA (DB-H1-H2) [2] = molecular target: T2, FrzCDΔMA (DB-H1-H2) (Myxococcus xanthus, UniProt P43500 1-137, del138-417); assay: EMSA
T2 sequence: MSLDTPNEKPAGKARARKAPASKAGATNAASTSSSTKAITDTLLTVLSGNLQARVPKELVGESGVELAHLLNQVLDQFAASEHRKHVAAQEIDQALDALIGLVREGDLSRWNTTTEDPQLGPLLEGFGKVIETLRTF

FrzCD [3] = molecular target: T1, FrzCD; assay: SEC-MALS
FrzCDΔMA (DB-H1-H2) [4] = molecular target: T2, FrzCDΔMA (DB-H1-H2); assay: SEC-MALS
FrzCDΔH1 [5] = molecular target: T3, FrzCDΔH1 (Myxococcus xanthus, UniProt P43500 1-417, del31-83); assay: EMSA
T3 sequence: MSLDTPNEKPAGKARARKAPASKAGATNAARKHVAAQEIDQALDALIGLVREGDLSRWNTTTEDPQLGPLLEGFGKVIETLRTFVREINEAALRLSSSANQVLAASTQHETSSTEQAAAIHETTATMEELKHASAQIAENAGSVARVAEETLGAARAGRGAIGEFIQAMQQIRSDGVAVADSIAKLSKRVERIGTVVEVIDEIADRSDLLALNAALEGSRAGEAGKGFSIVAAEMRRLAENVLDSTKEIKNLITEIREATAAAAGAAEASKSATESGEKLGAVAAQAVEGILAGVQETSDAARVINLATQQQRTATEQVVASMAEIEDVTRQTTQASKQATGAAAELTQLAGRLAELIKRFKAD

FrzCDΔH2 (DB-H1-MA) [6] = molecular target: T4, FrzCDΔH2 (DB-H1-MA) (Myxococcus xanthus, UniProt P43500 1-417, del84-137); assay: EMSA
T4 sequence: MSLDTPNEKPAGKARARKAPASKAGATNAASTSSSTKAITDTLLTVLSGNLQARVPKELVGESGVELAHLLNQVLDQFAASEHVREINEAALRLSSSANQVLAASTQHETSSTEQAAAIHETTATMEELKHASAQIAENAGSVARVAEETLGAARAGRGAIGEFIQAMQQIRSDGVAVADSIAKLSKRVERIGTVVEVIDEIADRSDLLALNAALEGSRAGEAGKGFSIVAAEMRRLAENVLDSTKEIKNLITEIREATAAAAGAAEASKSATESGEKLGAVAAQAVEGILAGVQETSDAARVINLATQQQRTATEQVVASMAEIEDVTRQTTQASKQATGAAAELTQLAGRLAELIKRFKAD

FrzCDΔH1ΔH2 [7] = molecular target: T5, FrzCDΔH1ΔH2 (Myxococcus xanthus, UniProt P43500 1-417, del31-137); assay: EMSA
T5 sequence: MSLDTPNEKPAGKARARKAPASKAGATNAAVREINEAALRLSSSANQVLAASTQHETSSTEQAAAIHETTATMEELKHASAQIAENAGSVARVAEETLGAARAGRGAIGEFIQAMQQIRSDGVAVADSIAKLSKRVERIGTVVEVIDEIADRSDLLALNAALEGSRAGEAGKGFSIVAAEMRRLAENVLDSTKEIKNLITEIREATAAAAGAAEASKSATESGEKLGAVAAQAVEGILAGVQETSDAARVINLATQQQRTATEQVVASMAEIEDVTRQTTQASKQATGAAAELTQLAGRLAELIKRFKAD

FrzCDΔH1ΔH2 [8] = molecular target: T5, FrzCDΔH1ΔH2; assay: BLI
FrzCDΔH1 [9] = molecular target: T3, FrzCDΔH1; assay: BLI
FrzCD [10] = molecular target: T1, FrzCD; assay: BLI
FrzCDΔH2 (DB-H1-MA) [11] = molecular target: T4, FrzCDΔH2 (DB-H1-MA); assay: BLI
FrzCDΔMA (DB-H1-H2) [12] = molecular target: T2, FrzCDΔMA (DB-H1-H2); assay: EMSA; remark: listed apart in the source

B1: FrzCD^ΔMA (domain or fragment, Myxococcus xanthus, UniProt P43500 1-137, looked up)
chain: MSLDTPNEKPAGKARARKAPASKAGATNAASTSSSTKAITDTLLTVLSGNLQARVPKELVGESGVELAHLLNQVLDQFAASEHRKHVAAQEIDQALDALIGLVREGDLSRWNTTTEDPQLGPLLEGFGKVIETLRTF
- stoichiometry N (SEC-MALS): 2

Binder: AAAAAAAA (ssDNA) [8-base poly-A ssDNA]
- binding result (FrzCD [1]): binds

B2: 8 bp DNA (dsDNA)
DNA 1: ACTGCAGT
DNA 2: ACTGCAGT
- binding result (FrzCD [1]): binds
- binding result (FrzCDΔMA (DB-H1-H2) [2]): binds

B3: FrzCD^ΔH1 (receptor, Myxococcus xanthus, UniProt P43500 1-417, looked up)
chain: MSLDTPNEKPAGKARARKAPASKAGATNAARKHVAAQEIDQALDALIGLVREGDLSRWNTTTEDPQLGPLLEGFGKVIETLRTFVREINEAALRLSSSANQVLAASTQHETSSTEQAAAIHETTATMEELKHASAQIAENAGSVARVAEETLGAARAGRGAIGEFIQAMQQIRSDGVAVADSIAKLSKRVERIGTVVEVIDEIADRSDLLALNAALEGSRAGEAGKGFSIVAAEMRRLAENVLDSTKEIKNLITEIREATAAAAGAAEASKSATESGEKLGAVAAQAVEGILAGVQETSDAARVINLATQQQRTATEQVVASMAEIEDVTRQTTQASKQATGAAAELTQLAGRLAELIKRFKAD
- stoichiometry N (SEC-MALS): 4

B4: FrzCD^ΔH2 (receptor, Myxococcus xanthus, UniProt P43500 1-417, looked up)
chain: MSLDTPNEKPAGKARARKAPASKAGATNAASTSSSTKAITDTLLTVLSGNLQARVPKELVGESGVELAHLLNQVLDQFAASEHVREINEAALRLSSSANQVLAASTQHETSSTEQAAAIHETTATMEELKHASAQIAENAGSVARVAEETLGAARAGRGAIGEFIQAMQQIRSDGVAVADSIAKLSKRVERIGTVVEVIDEIADRSDLLALNAALEGSRAGEAGKGFSIVAAEMRRLAENVLDSTKEIKNLITEIREATAAAAGAAEASKSATESGEKLGAVAAQAVEGILAGVQETSDAARVINLATQQQRTATEQVVASMAEIEDVTRQTTQASKQATGAAAELTQLAGRLAELIKRFKAD
- stoichiometry N (SEC-MALS): 4

B5: FrzCD^ΔH1ΔH2 (receptor, Myxococcus xanthus, UniProt P43500 1-417, looked up)
chain: MSLDTPNEKPAGKARARKAPASKAGATNAAVREINEAALRLSSSANQVLAASTQHETSSTEQAAAIHETTATMEELKHASAQIAENAGSVARVAEETLGAARAGRGAIGEFIQAMQQIRSDGVAVADSIAKLSKRVERIGTVVEVIDEIADRSDLLALNAALEGSRAGEAGKGFSIVAAEMRRLAENVLDSTKEIKNLITEIREATAAAAGAAEASKSATESGEKLGAVAAQAVEGILAGVQETSDAARVINLATQQQRTATEQVVASMAEIEDVTRQTTQASKQATGAAAELTQLAGRLAELIKRFKAD
- stoichiometry N (SEC-MALS): 4

B6: 35 bp DNA (dsDNA)
DNA 1: GTCACCTGCTCTAGCTAATAGACTGAGCCGAGGTG
DNA 2: CACCTCGGCTCAGTCTATTAGCTAGAGCAGGTGAC
- binding result (FrzCD [3]): binds
- binding result (FrzCDΔMA (DB-H1-H2) [4]): binds
- binding result (FrzCDΔH1 [5]): binds
- binding result (FrzCDΔH2 (DB-H1-MA) [6]): binds
- binding result (FrzCDΔH1ΔH2 [7]): binds

B7: FrzCD full-length (His6-tagged) (receptor, Myxococcus xanthus, UniProt P43500 1-417, looked up)
chain: MSLDTPNEKPAGKARARKAPASKAGATNAASTSSSTKAITDTLLTVLSGNLQARVPKELVGESGVELAHLLNQVLDQFAASEHRKHVAAQEIDQALDALIGLVREGDLSRWNTTTEDPQLGPLLEGFGKVIETLRTFVREINEAALRLSSSANQVLAASTQHETSSTEQAAAIHETTATMEELKHASAQIAENAGSVARVAEETLGAARAGRGAIGEFIQAMQQIRSDGVAVADSIAKLSKRVERIGTVVEVIDEIADRSDLLALNAALEGSRAGEAGKGFSIVAAEMRRLAENVLDSTKEIKNLITEIREATAAAAGAAEASKSATESGEKLGAVAAQAVEGILAGVQETSDAARVINLATQQQRTATEQVVASMAEIEDVTRQTTQASKQATGAAAELTQLAGRLAELIKRFKAD
- stoichiometry N (SEC-MALS): 2

B8: 178 bp DNA (dsDNA)
DNA 1: GGATCGCATCTGCCTACATCCCCAGCTCCCGGTCGGTCCGCTCGGAACCTAGCCCGGGTCAAAGACCCGGGGTCTATGTTGACCCATTTGGTGGGGATGGGTCTAATTGGACCTGGCGTTTTTTCGCGCCATGGAAATGTCAAGGCCCGTGATTCCAGACTGTTGGGCAGGGAGTT
DNA 2: AACTCCCTGCCCAACAGTCTGGAATCACGGGCCTTGACATTTCCATGGCGCGAAAAAACGCCAGGTCCAATTAGACCCATCCCCACCAAATGGGTCAACATAGACCCCGGGTCTTTGACCCGGGCTAGGTTCCGAGCGGACCGACCGGGAGCTGGGGATGTAGGCAGATGCGATCC
- Kd (FrzCDΔH1ΔH2 [8]): 203 nM
- Kd (FrzCDΔH1 [9]): 2270 nM
- Kd (FrzCD [10]): 1070 nM
- Kd (FrzCDΔH2 (DB-H1-MA) [11]): 2640 nM

B9: 12 bp DNA (dsDNA)
DNA 1: CTCACTATAGGG
DNA 2: CCCTATAGTGAG
- binding result (FrzCDΔMA (DB-H1-H2) [12]): binds
